In the supplement of paper PMC9732359:
± gives the uncertainty stated by the source.

Assay: protein stability index of a GFP-peptide fusion (yeast GPS) (PSI 1-4); higher = more stable; sorted into four equal gates, so the index is relative within each strain
Outline: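 Yeast carrying a pooled library were grown to mid-log phase in leucine-free medium. Each library plasmid expresses Cherry and has a tiled 17-residue yeast protein peptide fused downstream of GFP. Cells were sorted into four equal gates by GFP/Cherry ratio, and plasmids from each gate were PCR-amplified, Illumina-sequenced and assigned to strains by barcode. Summing, across gates, the read frequency times the gate number gave each peptide's protein stability index.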

WYLILSIISSKTSCVVE [RGR1]
protein stability index (doa10∆): 1.46 ± 0.13
protein stability index (pdr5∆): 1.23 ± 0.12
protein stability index (san1∆): 1.58 ± 0.26
protein stability index (ubr1∆): 1.18 ± 0.1

VKEEKEDMETQASDPSK [RPC53]
protein stability index (doa10∆): 3.27 ± 0.14
protein stability index (pdr5∆): 3.41 ± 0.2
protein stability index (san1∆): 3.2 ± 0.17
protein stability index (ubr1∆): 3.31 ± 0.15

YPEDKKTQQNEKSENGE [RPN3]
protein stability index (san1∆): 3.22 ± 0.041
protein stability index (ubr1∆): 3.13 ± 0.12

PPGYEIEELDNPMVPSS [PRP8]
protein stability index (doa10∆): 2.42 ± 0.1
protein stability index (pdr5∆): 2.65 ± 0.066
protein stability index (san1∆): 3.26 ± 0.085
protein stability index (ubr1∆): 2.82 ± 0.049

DILQITKKPLMVKNVKP [SIR4]
protein stability index (doa10∆): 2.79 ± 0.063
protein stability index (pdr5∆): 2.72 ± 0.049
protein stability index (san1∆): 2.55 ± 0.069
protein stability index (ubr1∆): 2.63 ± 0.062

YNNNTIRKLLEKINRMI [CSI1]
protein stability index (doa10∆): 3 ± 0.18
protein stability index (pdr5∆): 2.79 ± 0.17
protein stability index (ubr1∆): 3.1 ± 0.19

SKDVQQIDYKLESFQAV [RPS7A]
protein stability index (doa10∆): 2.89 ± 0.053
protein stability index (pdr5∆): 3.06 ± 0.059
protein stability index (san1∆): 3.08 ± 0.054
protein stability index (ubr1∆): 3.07 ± 0.038

YDRNSNNNHKDKKLLRR [SWI1]
protein stability index (doa10∆): 3.09 ± 0.053
protein stability index (pdr5∆): 3.17 ± 0.05
protein stability index (san1∆): 3.06 ± 0.06
protein stability index (ubr1∆): 3.23 ± 0.041

PSRIFYKALRGMVSHKT [RPL16A]
protein stability index (doa10∆): 2.32 ± 0.1
protein stability index (pdr5∆): 1.27 ± 0.075
protein stability index (san1∆): 2.44 ± 0.14
protein stability index (ubr1∆): 1.82 ± 0.13

TWIHSEIEELKSSIQNL [SMC3]
protein stability index (doa10∆): 2.27 ± 0.11
protein stability index (pdr5∆): 2.3 ± 0.068
protein stability index (san1∆): 2.29 ± 0.21
protein stability index (ubr1∆): 3.08 ± 0.11

IWFPEDFISPELIIDKV [MED1]
protein stability index (doa10∆): 2.68 ± 0.068
protein stability index (pdr5∆): 2.66 ± 0.069
protein stability index (san1∆): 3.01 ± 0.075
protein stability index (ubr1∆): 2.94 ± 0.044

PVGACATSVESVDIGVE [FAS2]
protein stability index (doa10∆): 2.92 ± 0.13
protein stability index (pdr5∆): 2.9 ± 0.11
protein stability index (san1∆): 2.12 ± 0.085
protein stability index (ubr1∆): 2.86 ± 0.089

LIKFVDLSRNGRNGSNG [NUT1]
protein stability index (doa10∆): 3.08 ± 0.074
protein stability index (pdr5∆): 3.2 ± 0.099
protein stability index (san1∆): 3.15 ± 0.068
protein stability index (ubr1∆): 3.2 ± 0.069

RVLQLLAVIMDNIGEID [YCG1]
protein stability index (doa10∆): 1.93 ± 0.073
protein stability index (pdr5∆): 1.63 ± 0.067
protein stability index (san1∆): 1.46 ± 0.17
protein stability index (ubr1∆): 1.52 ± 0.046

ENGLQLSDNAKTLHSQM [RPC34]
protein stability index (doa10∆): 3.11 ± 0.18
protein stability index (pdr5∆): 3.27 ± 0.096
protein stability index (san1∆): 3.27 ± 0.07
protein stability index (ubr1∆): 3.13 ± 0.053

FRHHVQIQQQQQKQQQQ [SNF5]
protein stability index (doa10∆): 2.71 ± 0.17
protein stability index (san1∆): 3.07 ± 0.13
protein stability index (ubr1∆): 2.57 ± 0.083

DEIDAALDFRNVSIVAN [SMC4]
protein stability index (doa10∆): 1.75 ± 0.056
protein stability index (pdr5∆): 1.91 ± 0.05
protein stability index (san1∆): 2.03 ± 0.076
protein stability index (ubr1∆): 1.54 ± 0.051

VAALVSLTEKFSQTVAD [ECM29]
protein stability index (doa10∆): 2.77 ± 0.08
protein stability index (pdr5∆): 1.61 ± 0.059
protein stability index (san1∆): 1.8 ± 0.14
protein stability index (ubr1∆): 1.67 ± 0.085

LYFYRDPEEVEQQVAEE [RPS0A]
protein stability index (doa10∆): 3.31 ± 0.087
protein stability index (pdr5∆): 3.31 ± 0.095
protein stability index (san1∆): 3.1 ± 0.082
protein stability index (ubr1∆): 3.56 ± 0.076

REDTPLSQNESTRASTV [ISW2]
protein stability index (doa10∆): 2.96 ± 0.067
protein stability index (pdr5∆): 3.11 ± 0.058
protein stability index (san1∆): 2.96 ± 0.052
protein stability index (ubr1∆): 2.97 ± 0.048

NMTTIADRNDDDEGSFA [SRB6]
protein stability index (doa10∆): 3.72 ± 0.17
protein stability index (pdr5∆): 3.4 ± 0.3
protein stability index (san1∆): 3.33 ± 0.094
protein stability index (ubr1∆): 3.44 ± 0.079

GQLLSVKFLVYQGVYSM [YML031W/NDC1]
protein stability index (doa10∆): 1.61 ± 0.084
protein stability index (pdr5∆): 1.75 ± 0.14
protein stability index (san1∆): 1.48 ± 0.11
protein stability index (ubr1∆): 1.98 ± 0.11

IGAELKREESESAAVYN [SNF2]
protein stability index (doa10∆): 2.99 ± 0.087
protein stability index (pdr5∆): 3.08 ± 0.091
protein stability index (san1∆): 2.84 ± 0.071
protein stability index (ubr1∆): 3.21 ± 0.071

VPDSKIRIYDLGKKKAT [RPL10]
protein stability index (doa10∆): 1.24 ± 0.076
protein stability index (pdr5∆): 1.35 ± 0.071
protein stability index (san1∆): 1.15 ± 0.13
protein stability index (ubr1∆): 1.05 ± 0.056

RMRNRALREMRKSDQQD [POP1]
protein stability index (doa10∆): 3.61 ± 0.13
protein stability index (pdr5∆): 3.63 ± 0.17
protein stability index (san1∆): 3.23 ± 0.11
protein stability index (ubr1∆): 3.13 ± 0.13

VEQGYEDAFNFWFDKLV [YCG1]
protein stability index (doa10∆): 3.05 ± 0.12
protein stability index (pdr5∆): 2.66 ± 0.14
protein stability index (san1∆): 3.38 ± 0.1
protein stability index (ubr1∆): 2.38 ± 0.2

EDDEFEDFPIDTWANGE [SEM1]
protein stability index (doa10∆): 3.32 ± 0.098
protein stability index (pdr5∆): 3.26 ± 0.11
protein stability index (san1∆): 2.85 ± 0.11
protein stability index (ubr1∆): 3.03 ± 0.078

SSTYYNLDYLFELIELV [NUT1]
protein stability index (pdr5∆): 2.62 ± 0.17
protein stability index (san1∆): 2.78 ± 0.15

STDELVGSPLTVSILQE [POP8]
protein stability index (doa10∆): 2.08 ± 0.084
protein stability index (pdr5∆): 2.62 ± 0.11
protein stability index (san1∆): 2 ± 0.1
protein stability index (ubr1∆): 2.26 ± 0.084

EFYNEMHRPVHFLQFSE [PRP8]
protein stability index (doa10∆): 2.9 ± 0.086
protein stability index (pdr5∆): 2.51 ± 0.089
protein stability index (san1∆): 2.27 ± 0.067
protein stability index (ubr1∆): 2.33 ± 0.058

RHHWQYTKASLAKERQK [SSN8]
protein stability index (doa10∆): 1.74 ± 0.072
protein stability index (pdr5∆): 1.66 ± 0.07
protein stability index (san1∆): 1.4 ± 0.14
protein stability index (ubr1∆): 2.14 ± 0.064

SNAAGADDAISMHLLKD [SRB8]
protein stability index (doa10∆): 3.17 ± 0.1
protein stability index (pdr5∆): 2.49 ± 0.065
protein stability index (san1∆): 3.07 ± 0.099
protein stability index (ubr1∆): 2.76 ± 0.055

VEDELTESIALSSMRFK [RRI1]
protein stability index (doa10∆): 3.21 ± 0.067
protein stability index (pdr5∆): 3.38 ± 0.051
protein stability index (san1∆): 3.21 ± 0.062
protein stability index (ubr1∆): 3.28 ± 0.051

EKDCSLRAIEKNDDNSC [YIL149C/MLP2]
protein stability index (doa10∆): 2.32 ± 0.1
protein stability index (pdr5∆): 2.67 ± 0.077
protein stability index (san1∆): 3.06 ± 0.082
protein stability index (ubr1∆): 1.86 ± 0.11

SKEETVDFIKHSLSQAI [PRE3]
protein stability index (doa10∆): 2.56 ± 0.065
protein stability index (pdr5∆): 2.65 ± 0.063
protein stability index (san1∆): 2.66 ± 0.056
protein stability index (ubr1∆): 2.7 ± 0.053

RAIYSYLSGAIPNQEVL [YDL116W/NUP84]
protein stability index (doa10∆): 2.4 ± 0.066
protein stability index (pdr5∆): 2.58 ± 0.079
protein stability index (san1∆): 2.5 ± 0.089
protein stability index (ubr1∆): 2.76 ± 0.055

DLKSKADKLADMANEII [RRP6]
protein stability index (doa10∆): 3.38 ± 0.15
protein stability index (pdr5∆): 3.17 ± 0.12
protein stability index (san1∆): 3.19 ± 0.082
protein stability index (ubr1∆): 3.16 ± 0.085

TRPYILERARDVNIVNR [YCG1]
protein stability index (doa10∆): 3.29 ± 0.1
protein stability index (pdr5∆): 2.78 ± 0.21
protein stability index (san1∆): 3.48 ± 0.18
protein stability index (ubr1∆): 3.08 ± 0.11

QNFENDFSLRYISNLLY [REC8]
protein stability index (doa10∆): 2.19 ± 0.074
protein stability index (pdr5∆): 2.29 ± 0.076
protein stability index (san1∆): 2.02 ± 0.11
protein stability index (ubr1∆): 2.06 ± 0.043

NVGDNNSTASSSNISPE [ARP7]
protein stability index (doa10∆): 2.83 ± 0.089
protein stability index (pdr5∆): 3.11 ± 0.062
protein stability index (san1∆): 3.04 ± 0.055
protein stability index (ubr1∆): 3.08 ± 0.045

MKNKAETTTEEDSENPS [ITC1]
protein stability index (doa10∆): 3.31 ± 0.19
protein stability index (pdr5∆): 3.27 ± 0.14
protein stability index (san1∆): 3.03 ± 0.13
protein stability index (ubr1∆): 3.31 ± 0.15

LWNLNAYRTDVIQALGG [PRP8]
protein stability index (doa10∆): 2.17 ± 0.055
protein stability index (pdr5∆): 2.16 ± 0.05
protein stability index (san1∆): 1.88 ± 0.088
protein stability index (ubr1∆): 1.93 ± 0.041

GTYIQERNPSQRPQRRY [RPS10B]
protein stability index (doa10∆): 3.01 ± 0.052
protein stability index (pdr5∆): 3.1 ± 0.042
protein stability index (san1∆): 3.09 ± 0.033
protein stability index (ubr1∆): 3.23 ± 0.036

YISAELYAQLRENGLVP [SNU114]
protein stability index (doa10∆): 2.38 ± 0.068
protein stability index (pdr5∆): 2.21 ± 0.071
protein stability index (san1∆): 2.48 ± 0.1
protein stability index (ubr1∆): 2.73 ± 0.058

ARNVTFDSLRNFIVHSP [GRR1]
protein stability index (doa10∆): 2.14 ± 0.063
protein stability index (pdr5∆): 2.35 ± 0.057
protein stability index (san1∆): 2.25 ± 0.08
protein stability index (ubr1∆): 1.94 ± 0.041

NWLSIFNDFSNIKTSEW [REC8]
protein stability index (doa10∆): 2.67 ± 0.082
protein stability index (pdr5∆): 2.95 ± 0.061
protein stability index (san1∆): 2.94 ± 0.091
protein stability index (ubr1∆): 2.91 ± 0.085

HEDLVNSIESKNLSLQT [COR1]
protein stability index (doa10∆): 2.96 ± 0.087
protein stability index (pdr5∆): 2.96 ± 0.074
protein stability index (san1∆): 3.09 ± 0.083
protein stability index (ubr1∆): 2.97 ± 0.073

KDRIIDERTKEFEKKLQ [YIL149C/MLP2]
protein stability index (doa10∆): 3.23 ± 0.21
protein stability index (pdr5∆): 3.06 ± 0.19
protein stability index (san1∆): 2.94 ± 0.086
protein stability index (ubr1∆): 3.42 ± 0.1

MMVSYPKIDEDDTWYNL [AAR2]
protein stability index (doa10∆): 3.29 ± 0.063
protein stability index (pdr5∆): 3.34 ± 0.06
protein stability index (san1∆): 3.25 ± 0.048
protein stability index (ubr1∆): 3.35 ± 0.045

LLNINGSRKVAGILRGY [SMX2]
protein stability index (doa10∆): 2.64 ± 0.14
protein stability index (pdr5∆): 1.67 ± 0.12
protein stability index (san1∆): 2.25 ± 0.14
protein stability index (ubr1∆): 1.52 ± 0.14

FKSVLPIVLLNTLRKCY [UBP6]
protein stability index (doa10∆): 1.26 ± 0.11
protein stability index (pdr5∆): 1.23 ± 0.071
protein stability index (san1∆): 1.12 ± 0.16
protein stability index (ubr1∆): 1.18 ± 0.12

ENGRRINELTLLVQKRF [RPS3]
protein stability index (doa10∆): 3.51 ± 0.27
protein stability index (pdr5∆): 3.42 ± 0.11
protein stability index (san1∆): 3.55 ± 0.13
protein stability index (ubr1∆): 3.32 ± 0.12

SWSSSAAVIMRCKIYFF [PCI8]
protein stability index (doa10∆): 1.24 ± 0.055
protein stability index (pdr5∆): 1.71 ± 0.058
protein stability index (san1∆): 1.34 ± 0.11
protein stability index (ubr1∆): 1.28 ± 0.047

EERFSELFKGYLADDID [RPL5]
protein stability index (doa10∆): 3.05 ± 0.29
protein stability index (pdr5∆): 3.27 ± 0.24
protein stability index (san1∆): 3.3 ± 0.17
protein stability index (ubr1∆): 3.01 ± 0.28
